The assay concerns the target WIPI3-Δloop (human), Q5MNZ6. The experiment in a line: ITC; WIPI3 proteins in the sample cell, GB1-tagged ATG2A fragments in the syringe; 25 °C; 50 mM Tris-HCl pH 8.0, 100 mM NaCl, 1 mM EDTA, 1 mM DTT; model of one binding site. A general note: In ITC the heat of successive injections is recorded.

Sequence of WIPI3-Δloop (human), Q5MNZ6 (Q5MNZ6 other isoform, or with tags, fused parts or gaps mutant): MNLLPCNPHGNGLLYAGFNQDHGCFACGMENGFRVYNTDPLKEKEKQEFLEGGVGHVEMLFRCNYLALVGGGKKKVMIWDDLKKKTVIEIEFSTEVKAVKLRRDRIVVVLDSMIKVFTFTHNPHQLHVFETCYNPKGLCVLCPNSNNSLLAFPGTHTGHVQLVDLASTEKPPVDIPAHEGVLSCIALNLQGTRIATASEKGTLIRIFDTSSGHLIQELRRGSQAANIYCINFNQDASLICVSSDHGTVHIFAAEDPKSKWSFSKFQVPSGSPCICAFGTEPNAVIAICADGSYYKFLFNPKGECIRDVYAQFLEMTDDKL

B1: GB1-tagged WIR-peptide ΔN-strand (peptide)
chain: GPIVVRDGYFSRPIGSTD
modifications: not checked
B1 showed a Kd of 64.3 µM.

One may read the Kd as the constant that tells how readily two partners part at equilibrium. Read a low Kd as tighter binding.

These data come from PMC7264293, “Multi-site-mediated entwining of the linear WIR-motif around WIPI β-propellers for autophagy” (Nature Communications, 2020).
